{"source": "IntAct's records for PubMed 23001144", "parents": {"B1": {"name": "Translocated intimin receptor Tir (Escherichia coli O157:H7), Q7DB77 (parent)", "chain": "MPIGNLGHNPNVNNSIPPAPPLPSQTDGAGGRGQLINSTGPLGSRALFTPVRNSMADSGDNRASDVPGLPVNPMRLAASEITLNDGFEVLHDHGPLDTLNRQIGSSVFRVETQEDGKHIAVGQRNGVETSVVLSDQEYARLQSIDPEGKDKFVFTGGRGGAGHAMVTVASDITEARQRILELLEPKGTGESKGAGESKGVGELRESNSGAENTTETQTSTSTSSLRSDPKLWLALGTVATGLIGLAATGIVQALALTPEPDSPTTTDPDAAASATETATRDQLTKEAFQNPDNQKVNIDELGNAIPSGVLKDDVVANIEEQAKAAGEEAKQQAIENNAQAQKKYDEQQAKRQEELKVSSGAGYGLSGALILGGGIGVAVTAALHRKNQPVEQTTTTTTTTTTTSARTVENKPANNTPAQGNVDTPGSEDTMESRRSSMASTSSTFFDTSSIGTVQNPYADVKTSLHDSQVPTSNSNTSVQNMGNTDSVVYSTIQHPPRDTTDNGARLLGNPSAGIQSTYARLALSGGLRHDMGGLTGGSNSAVNTSNNPPAPGSHRFV"}, "B2": {"name": "Translocated intimin receptor Tir (Escherichia coli O127:H6 (strain E2348/69 / EPEC)), B7UM99 (parent)", "chain": "MPIGNLGNNVNGNHLIPPAPPLPSQTDGAARGGTGHLISSTGALGSRSLFSPLRNSMADSVDSRDIPGLPTNPSRLAAATSETCLLGGFEVLHDKGPLDILNTQIGPSAFRVEVQADGTHAAIGEKNGLEVSVTLSPQEWSSLQSIDTEGKNRFVFTGGRGGSGHPMVTVASDIAEARTKILAKLDPDNHGGRQPKDVDTRSVGVGSASGIDDGVVSETHTSTTNSSVRSDPKFWVSVGAIAAGLAGLAATGIAQALALTPEPDDPTTTDPDQAANAAESATKDQLTQEAFKNPENQKVNIDANGNAIPSGELKDDIVEQIAQQAKEAGEVARQQAVESNAQAQQRYEDQHARRQEELQLSSGIGYGLSSALIVAGGIGAGVTTALHRRNQPAEQTTTTTTHTVVQQQTGGNTPAQGGTDATRAEDASLNRRDSQGSVASTHWSDSSSEVVNPYAEVGGARNSLSAHQPEEHIYDEVAADPGYSVIQNFSGSGPVTGRLIGTPGQGIQSTYALLANSGGLRLGMGGLTSGGESAVSSVNAAPTPGPVRFV"}}, "data": [{"variants_of": "B1", "conditions": "with ptn6_human PTPN6, P29350", "values": [{"variant": "Y490F;Y519F", "effect of a mutation on the interaction": "decreasing interaction"}]}, {"variants_of": "B2", "conditions": "with ptn6_human PTPN6, P29350", "values": [{"variant": "Y483F", "effect of a mutation on the interaction": "decreasing interaction"}, {"variant": "Y483F;Y511F", "effect of a mutation on the interaction": "decreasing interaction"}, {"variant": "Y511F", "effect of a mutation on the interaction": "decreasing interaction"}]}, {"variants_of": "B2", "conditions": "with ptn6_mouse Ptpn6, P29351", "values": [{"variant": "Y483F;Y511F", "effect of a mutation on the interaction": "decreasing interaction"}]}]}
